From publication PMC4082471 (ChemMedChem, 2014)

Experiments:
[1] = Solubility in aqueous buffer by 1H NMR; format: physicochemical; details: for solubility compared to that of PTX alone: qualitative
[2] = heparinized rat plasma, 400 μM compound, 37 °C, 1D 1H NMR 600 MHz
[3] = Stability in aqueous buffer and organic solvents by NMR; format: physicochemical
[4] = literature value, ref not given; cited from earlier work

DYPSMAMYSPSV [DYP-L2-PTX]
solubility compared to that of PTX alone [1]: increased solubility

ySAYPDSVP(L-Norleucine)(L-Homoserine)S [dYNH-L2-PTX]
solubility compared to that of PTX alone [1]: increased solubility | degradation after 8 hours incubation with plasma [2]: d-Tyr1 does not appear to be degraded

YSAYPDSVPMMS [YSA-L2-PTX]
solubility compared to that of PTX alone [1]: increased solubility

YSAYPDSVPMMS [YSA-L1-PTX]
stability in organic solvents ([3]; DMSO or methanol): very stable | time within which degradation of the linker in buffer is observed ([3]; aqueous buffer): ≤ 10 min

CC(=O)O[C@H]1C(=O)[C@@]2(C)[C@H]([C@H](OC(=O)c3ccccc3)[C@]3(O)C[C@H](OC(=O)[C@H](O)[C@@H](NC(=O)c4ccccc4)c4ccccc4)C(C)=C1C3(C)C)[C@]1(OC(C)=O)CO[C@@H]1C[C@@H]2O [PTX, paclitaxel]
solubility in aqueous buffer ([1]; assessed from 1H NMR spectra in aqueous buffer): below 10 μM | aqueous solubility [4]: < 10 µg/mL | log P [4]: 3.96
